Experimental findings from the supplement of paper PMC11502859 are described below.

Where “and” joins values, the source holds several entries; their conditions need not be identical. Equal values may be shown once.
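Also: lentiviral eGFP-IRES-mCherry reporter pool sorted by FACS 96 h post-transduction, gated on mCherry-high cells, Illumina read counts normalized per million, median across four biological replicates.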

The data set deals with HEK293T. Description: median enrichment of reporter reads in eGFP-reduced (low/intermediate) vs eGFP-high sorted cells (eGFP-extension fusion abundance) (ratio); higher = stronger loss of eGFP-fusion protein abundance (more destabilising extension).
For RDASTGPSLFCPQP [HSPB8], the median enrichment amounted to 0.453.

Take RDCACI [CPSF3]: the median enrichment is 0.439.

In the case of RDI [ACSM2A], the median enrichment was 0.259. As to RDKVRVFSSYILSQATLQDVAKAYIFP [IPCEF1], the median enrichment turned out to be 3.59. On to RDRALRCQGENPSSNPGYLETEKLEF [ITLN2], for which the median enrichment was 0.166. With “RDSRTKSLCMKLPTMNVMMLYTKVTRQLSLSGFRSVFGTSLSSTYSAHGNYKLYISFPIVFQNVFSTEHA [RUFY2]” the figure was 8.53; with “RDSSACPPWGPCCRPGGQSRWERHSQGQGKEGTHTHTHTHTHTHTYILLSLPKPIRQVNGQCLLGPWTHFLLGEAAS [GLP1R]”, 3.35. RDSSP [CD1C]: the median enrichment was found to be 0.413. As to RDVQDL [ZMPSTE24], the median enrichment was found to be 0.177.

As for REA [NPSR1], the median enrichment worked out at 4.09. With READTFFQQ [ADAM12] the figure was 0.392; with REAGLPVLLPQGPLWLFTNKDPFVK [BCL7C], 6.88; with REALHLNLFMS [ERI2], 2.13. Consider REAMPWSWD [SLN], for which the median enrichment worked out at 0.623. On to REAWPR [ELOVL1], for which the median enrichment was found to be 0.427. Take REDAFLFMGFLPWSLSSKCHSGQSFVSVS [NOD1]: the median enrichment was 33.9. For REDHGLSVPQSQLPDG [TBC1D10C], the median enrichment was 1.36.

For “REEWGRLRSCGPRPRSLRGCLGDHLDLEAESAILPD [DHRS2]”, the median enrichment was determined as 2.36.

For the substance REFYRDAEKKERSEAIYAYGSRKR [CHCHD7], the median enrichment was found to be 7.02. “REGSNGSRELDTVHPNTSPPPGHLEESSARIPRQSSPPAPAVPSCAVLLPHSAPGPCPFIPLKHPLKPLHHFHSQQKVIEHLL [HAUS5]”: the median enrichment is 7.

In the case of REKGNAQERNTVSPISDLDSTGYMEEI [OR8B8], the median enrichment was found to be 0.597.

RELHYPFPSQTTN [MDC1]: the median enrichment was determined as 0.473. On to RELTCETSA [FOXP2], for which the median enrichment was determined as 0.325. Turning to RENQHP [CRYBG3], the median enrichment amounted to 0.514.

With “REPKGDWALWQLLSHTVDHSSPSCSLSSSECGW [TRIM66]”, the median enrichment stood at 12.8. As for REQ [UNC93A], the median enrichment was determined as 5.69.

On to “REQQMELWERGEQWGYRESSSALPLGQPHLPAVSPGHFSTSQVEVLQGPAATCIRRTSFSA [SPATA19]”, for which the median enrichment turned out to be 4.52. “REQVPAPHTPWRLPLRLHRLLPSIQPGVQVALFRGQMQAVGRTLPVSCVPHRERLWGDGWGMQSLRANKSSSEPASPLNV [KHK]”: the median enrichment was determined as 2.84. With RERGLSSSLPAPSSPRPSSLCAW [HOXC10], the median enrichment came out at 4.17. With “RERTTPSLPSMDGHSSAASSATSCSQPMPGGAAIFSPHHPFTHS [EHMT2]”, the median enrichment was 0.484. Turning to RESAGIEQSSPAQVSSLP [ZNF622], the median enrichment is 0.239. In the case of RESLHLEITTGYASGI [ZNF41], the median enrichment came to 5.83. Consider “RESSCILENTIPDFPQTALHQYNCISSFYIVQ [SCRG1]”, for which the median enrichment was 13.8. Turning to RETPTTPQPHRTNNSLQV [DCSTAMP], the median enrichment turned out to be 0.265. As for “REVYLKKKSETDTSNPAVTTTPTTYVHMTNNFQVGFS [KCNH1]”, the median enrichment is 4.02. The value for “RFHRSAFGHLLWWVLVTHFRLRFDGLNLYSLESMSCVYSTIRNLILFLLLFLQKQKLILKSIIMGWGGGCPQDMQDFCRGQHR [SETD4]” was 8.11; that for RFLVTA [GXYLT1] was 2.37. For RFPSPLLLLLLDGNHSLDHACSL [TUBG2], the median enrichment came to 2.18. With “RFQIWRRPGKPTEVQHVICLKVVLLHHIDDPTTSNMGHSIHFNISIFLYHFCYLSV [ARPC5]” the figure was 6.81; with “RGAEGPMGEERRALLGKVGFLDPRDKLFRCHNVEESTWGTTVLVQVGLGKCTSLPLTPRQNPHPSLWILGKVPVPGEYPGPQT [IGHMBP2]”, 5.61; with RGAF [HPX], 0.586.

Regarding RGAGTCDRLWWHH [NAGA], the median enrichment is 1.53.

With “RGAHGQDWWGLQDVRRVRCLALATLFLVGFCCCSCYFHL [PSMC3IP]”, the median enrichment was determined as 7.83. Consider “RGALVSPQSSQAAGSPRQLSGHPVPSAPPSAALCSRPAPPSRGCLGLFTCFPSHINTVFPLLSYNSPTAHSPPH [TNFSF12]”, for which the median enrichment is 8.64. With “RGASLLSSHSGSSFHPPPSPPPTRGTWWREAGRLFCGIARSSLWCRLVAITCNKAPGKGK [TLE6]” the figure was 21.9. RGASSSE [SLC1A6]: the median enrichment is 0.611 and 0.437. On to RGAV [RELT], for which the median enrichment turned out to be 0.538.

Regarding “RGCAPAGSSKDRPARSPSNPTFFWKGGVLQGQAGASSRLLGANPSMYIAFLSCLRAADSQRCARGERCAVGSRA [TNFRSF1A]”, the median enrichment amounted to 10.5. Turning to RGCQLGRKRETRP [CCND2], the median enrichment amounted to 0.783. For the substance “RGDAVGLAEPRFSHQQGECWPDTSEDPGLVIICLGGTG [GMPPB]”, the median enrichment came to 7.69. The value for RGFRHCIPELL [PPM1M] was 1.19.

Consider RGGMGFTDMVLIH [GABRG2], for which the median enrichment turned out to be 7.24. As for “RGGRTSNLPKRLPCPNPFITPSFRHPQPLLAQKENWGLRVGTQA [TNF]”, the median enrichment is 7.66. With RGGRWEPSFQ [OR6Q1], the median enrichment is 0.248. Turning to “RGGSASVPSLTSLGCCFSGVMSPLPLGYLPSTGQGPWWADGN [SFXN3]”, the median enrichment was 21.3. Turning to “RGHRSEMRGLECGWAPGAMGGCGAGEIKSELLLPGVPTSSSGQSVHSQPDR [BCL2]”, the median enrichment is 1.46. As for RGIRLPGNSGTVALADHLQHPAS [SLC2A10], the median enrichment was found to be 0.279.

As to RGK [PKP2], the median enrichment was determined as 0.513.

Turning to “RGKRAPVRRKGRRFRDVGGHPSPSRPCWGHGSGGGDMGPRQTASPTEHLDSNSVPGGAPTPPFSVSSCLFFFIFITKFHSF [ZFP36L2]”, the median enrichment worked out at 5.27.

Turning to RGKTTGRPESGPARCSGEFLISSHWGN [BPIFB2], the median enrichment was found to be 0.953. For the substance RGKTWKRPACLQ [RRM1], the median enrichment was determined as 0.421. On to “RGLGWAGARRAAGWPLGGQDGTVGTEVGGRGPSGLN [TNFRSF8]”, for which the median enrichment was determined as 6.62. The value for “RGLLALTLQPTLAVWPSPGSFPAPLPLFPVLLNSPSWRVQALGMGGTRPHSFHRALRPDTADQPHSAQEAASGVGAQRGTAAS [BAP1]” was 2.63. “RGLLPLGPLTLSGWWTTKYNPVYNLKIYFTFVLLYLFIKG [SMAD4]”: the median enrichment came to 6.89. For RGLRRGLTEP [SLC22A6], the median enrichment was found to be 0.442. With “RGNLQAEEVSAAALLEPGRGLPVSQPGPATQDSWDIPCVTPLRPFGLAPWLSLREVALRLAIYIYNLFT [HK3]”, the median enrichment is 4.11. With RGNMCNVLTKVTGTY [PLEKHS1] the figure was 1.76; with RGPALPPCTSPGAERS [PRMT1], 1.08; with RGPASHGPRTMESPLSS [GNB1L], 0.533.

Regarding RGPEASWVSLGPQKLIKE [PCP2], the median enrichment amounted to 0.815.

On to “RGPELARPRTPNTIFAIQPQAMGTAFLPRGPGRPQRLLQARTLVHYTPCLGAEILQQKDAIFFVSFFSIFFSKESIFQYVECV [NFYC]”, for which the median enrichment turned out to be 3.94. With RGPPGLWGERM [CHRNB4], the median enrichment was found to be 1.36.

For the substance “RGPPLAKACGRRWRPSLGRFQGASGKPDGCWWPFPRGLVSGPAQSLLRGRGWRLGSPACLAPPSERAALLSY [ARL6IP4]”, the median enrichment came out at 10.9. Take RGPSETVYALTST [KDELR3]: the median enrichment was determined as 1.55. Consider RGQAAPVLGEGG [DEPDC5], for which the median enrichment is 3.76. Turning to RGQWLRGYVVQMLLLP [FILIP1], the median enrichment stood at 8.14.

Take “RGRGCPPRPLTPPAAVAAILPLAWGLPSPSQSISPPPSCSGWMWACR [KMT2B]”: the median enrichment was 4.49. On to “RGRLNPPNINSHPSLHSCLPLFTFILRVQKFQVSFELYFVCQFHAYFSFIRES [CNTD1]”, for which the median enrichment is 5.36. Turning to RGRTSALSDRTLRAMLPCHP [MRGPRX3], the median enrichment came out at 6.81. Regarding “RGSGQECHSQCPDPEIGPIPCLQPCLEAIQ [SLC22A14]”, the median enrichment was determined as 2.88. With RGSRRKQDTRWQA [PHGR1], the median enrichment worked out at 3.92. Regarding RGTAVPACSPHLGRGSLAAFSLRSRST [AGAP1], the median enrichment is 0.942.

As to “RGTLRSPKTSSCWGPHEGTSTLWGVARKRQALQLGDPIWKRDSDLPTSSSSFSTKAPVDSREVVKIFFSPIFLPASGDTAAVT [PGPEP1]”, the median enrichment was found to be 2.83.

On to RGWDPLLKLVASAGLGAAPQRLQLIC [FES], for which the median enrichment stood at 32.6. For the substance RHRGKRRKSC [CLDN1], the median enrichment was determined as 0.381.

Take RHRRTPGDFLYICRLRLFVTSKWDIV [TAF4]: the median enrichment amounted to 12. As to RHSELLAVEEHHAYL [YTHDC2], the median enrichment was found to be 0.354. As to RHSPLLVPH [TP53], the median enrichment was found to be 0.971. In the case of “RHSTRPPGLLGPPTPTALTAFPIAPGSSPPLGGTVKGSSLTRRLLLPLGSQLPPQESLLGRTLRTPSLHPVVL [KLC4]”, the median enrichment was 9.71. For RHVIP [NPFF], the median enrichment amounted to 0.57. Take RICKRRRHDVLCLH [MED12L]: the median enrichment was found to be 13.4. On to RIFCLVASQLGVL [GXYLT2], for which the median enrichment was determined as 6.32. As for RIFTHIYLVSIG [FAM129C], the median enrichment came to 28.5.

Take RILDQ [SH3KBP1]: the median enrichment amounted to 1.07. With “RILPNALSENAELPFLFASFIFNIHNVVCLKVGFEVCAAYSFHLSPRFPSL [RRAGA]” the figure was 15.7. The value for “RILSLIPATPLLISGGRTVSELFVSIGHLSLVVKDWLMITMHRKTFRRKGECFVDHFGFLFCVWQF [EEF1A1]” was 5.71; that for RIQPKCQVRSEGIFH [ABCC4] was 1.49; that for “RKCQEWKIFLILVQHEVVFRSLLSLIAILRFVGFYERLLLSGLKSFLNVCFLRSVIQLCEYFVTDLFQWLLV [HINT3]” was 11.3.

In the case of RKDNSWKPQQFSIQGIYLRQIEYIL [ARL6], the median enrichment worked out at 6.56. “RKEKQLLPLSWDRGVGKSAGPHGAWGSQTEAPQNFLQCLRDAWMWPLPLLLTLKDSQTH [LY9]”: the median enrichment turned out to be 4.97.
